Assay results reported in the DeepSol protein solubility set.

test: soluble on expression in E. coli; label from the status in PepcDB or PDB records

Q: With “MGSDKIHHHHHHMEWEVFEYRTKGIMAEIEAGRLKIVSSYVDKSFSARVILKGRVGFASASTRDEALSLAEKIARISEDELEDFPNEKPASVKGIYDKRVEEADSELIMEEFERLRSAVEKANIASATIEHAVEEVRITNSFGLDSREKSTSSSMIVEAVFEGGSAYEVCGSRSIELDIEGAAKKAEELAVDSAKAIKIEGGTYDVILQPIAVHQLLSNTLYPSLSAENVEKGRSVIRLGDEFGRITVIDDPTVEGGLMSCGFDDEGVSARKTFLIDNGVVRSYYTDWKHSKKYGVTGNGFRLEESSFPAPMVSNVVLEVDDADDDNCLTIHSLIGSHTANPVSGDFSLECNNAYFGEKAVKGAMIYGNVFELLKKVEGGLGELRQIENTVTKSLRFRSVRVI” as the sequence, how does the “soluble on expression in E. coli” value read?
A: Its value is “not soluble”.

Q: With “MGSDKIHHHHHHMEYIVRTHKIGIYEKALPKNLSWQDRLSIAKACGFDFVEISIDETDERLARLDWSKAERIELVTAIISTGITIPSMCLSGHRRFPFGSRDEATRQKAFEIMKKAIQLAVDLGIRTIQLAGYDVYYEEQDEGTIQRFQQGLEWAVKLAASHQVTIAVEIMDTQFISSISRWKKWDNIIRSPWFTVYPDLGNLSAWNENVSEELKLGIDKISAIHLKDTYKVTTTSKGQFRDVPFGAGCVDFVQCFRILSELNYRGAFLVEMWTEKAEEPITEIINARRWIEQKMKEGGFQC” as the sequence, how does the “soluble on expression in E. coli” value read?
A: The value was “not soluble”.

Q: Which “soluble on expression in E. coli” value does the source give for “MGSDKIHHHHHHMFEEIAYMILADGNEKSRFEANAYLRAARSLRSITEDVEDIYNRGGIEALTSVEGIGKKIASYIEEYIKTGRIKRYDDLKIRYPVDFRDLSRVQGLGPRKIVSLYKYAGVKNIDDLKAALADHRIASIPGFGEKSEKEIAENIQIAEMSFRRIPLPQGYRTAMEIADEIERAAGTVRVSVAGSIRRMRDTVGDIDLLCVTSDPPRAIAAFTGSKHCQRVVSSGEKKVTIATDAGVTCDLRIIDKGSFGSALQYFTGSKDHNIKLRKIAIDRGLKLNEYGLFRGNSNLVENQGEEKIYAELGMQYIPPELREDRGEIDRAISMTLPELVEAGDIRGDLYISYEFIRKYGADVLKKMERLQYFGVVLGSPEEKEGIKSVMNDGRIFLGIELTSKTYAEDAGEFDFTVLDLSGFPDEASARGAIESVKPTFIRNVTGRTFSSGRKMDPANIFEAAAKSGSAVMITASNDAFDPVAEDIMPHREGLMFALASFAQRPDDLGDMTFGIGIARRAWISKDRIINTMDYEKIAKIMRRP” here?
A: The value was “not soluble”.

Q: For “MGSDKIHHHHHHMFEGPIIDARIKSIASGFRAVSVYVDATSAEEGRFDPRLLGEACDCALADGPAWAEAHLASWSDAYAVFGAKPNRTPCSAQALRKRVLKDGTLSTINPIVDLYNAISLKYAVPVGGENFDAYVGRPHLTVADGSETFDTMVNGEAVNDPPLPGEVIWRDDIGVTCRRWNWRQGTRTRLKTLTGRMWFVLEALETMPDDALAEATDAMVGGLNALMPGCKIASQEIAIAG”, which “soluble on expression in E. coli” value is on record?
A: Its value is “not soluble”.

Q: Which “soluble on expression in E. coli” value does the source give for “MGSDKIHHHHHHMFENILWKMVKKRLIPKRKISRVHRSRKGVKRVVCVAFPLDQMFKSADDFIDALMEILQEDLPFVDLLIFPRLTGNLLAGVSPIRIENFEKLDPFYTDLLRYISKGLDVPIVAPGVETFRTSPDVLVIENGEVLHRYTLRERFAVADFGEWYAAVLRKEDTLSSKALRPLVEKNVFAFIHFDLETEENDWWKEKKGLWARSQSLEVFGIKVSPRGTFLGKTYRGKSYVSAPIPLTPNLTGFLRQDCGVKMSVDLELDLLKGKRHRIDTVKHILFRG” here?
A: Its value is “not soluble”.

Q: For “MGSDKIHHHHHHMFIVSKQTTTEYGTGCFAAPSSSCQSEYNPKVENDAVAHNSISGLRGSLRRNSSNLSSQLTALQETCLADAAQIEINCSTSNAKQAFFVKIEVPTGEQGVLHFSPSSGDISQVFTPIQNGCGHGVWKFVVCTMENGSEIAHSQVSRNLDGVGILFFNVYEDLEIRLAQQEFLHISHCHTRRH”, which “soluble on expression in E. coli” value is on record?
A: The value was “not soluble”.

Q: For “MGSDKIHHHHHHMFKGIIAALWDMDSIGEIEPDVVFLLKSDILNLKFHLKILKDRGKTVFVDMDFVNGLGEGEEAILFVKKAGADGIITIKPKNYVVAKKNGIPAVLRFFALDSKAVERGIEQIETLGVDVVEVLPGAVAPKVARKIPGRTVIAAGLVETEEEAREILKHVSAISTSSRILWKMKFLP”, which “soluble on expression in E. coli” value is on record?
A: Its value is “soluble”.

Q: For “MGSDKIHHHHHHMFQYFPTNYVWSLSAMIALTHGGQIGEVDQMCAPLVDAARAGNDPGTLAFFNAWKSGADKLAELAEEDKSGGRLLSAGEKLGRAALYYIIAERMQAHDFDGRLALYKHSLDVFLEGVRLARENCERIEIPYQDRHISGLYVRAVGVQGRAPVVVVMNGLDSTKEMLYRSCITSYLSRRGVAVLLVDQPGTGEALRLQKLHAIPQTEIWASKIVDYLQARTDIDPVRIGALGVSLGGYYAPRAVAFEPRFAAGAVWGANHDWREVQKRRLAREGENPVPHYWKHVEWVFGASDLDDFMQCAEAMHLNGVLDRIKVPFLVTHGENDRQIPVQYAHQTYEQLANSPRRELKIFTAREGGVEHSSLDNPTNAGSYIADWLAEQLHGTTA”, which “soluble on expression in E. coli” value is on record?
A: The value was “not soluble”.

Q: For “MGSDKIHHHHHHMFSARLKAIAQPVLADIENHPFVRGIQAGAVPAAALMVYVEQDTCFLDAFAKVYAGALSKCTTKDQMRFFEEQIRYTLNDEAGAHQILCDIAGQKLSDHQHAKQRPITYLYNEHLFNALRTGDLIDLIAAMLPCPWTYTEISQQIVDGAAPDNPFLPWIEFYQPQPGQIDGSMVKTLFGMVDELAIGLSEERQHEIEQRFLRSCELEYEFWEQAYYQKDWKYKN”, which “soluble on expression in E. coli” value is on record?
A: The value was “not soluble”.

Q: With “MGSDKIHHHHHHMGAVVVKDLRKRIGKKEILKGISFEIEEGEIFGLIGPNGAGKTTTLRIISTLIKPSSGIVTVFGKNVVEEPHEVRKLISYLPEEAGAYRNMQGIEYLRFVAGFYASSSSEIEEMVERATEIAGLGEKIKDRVSTYSKGMVRKLLIARALMVNPRLAILDEPTSGLDVLNAREVRKILKQASQEGLTILVSSHNMLEVEFLCDRIALIHNGTIVETGTVEELKERYKAQNIEEVFEEVVKCSENF” as the sequence, how does the “soluble on expression in E. coli” value read?
A: The value was “soluble”.

Q: For “MGSDKIHHHHHHMGDLSFIAINDKCEVVLDNEIYKSNIQGIEEKYIAISLPVANGTYAIMHKGDMTEIWCYHDNQVYSFTSTVIERKKEDAIKLILISKPSYENIKRVQRRKNFRVDLIESIKYKVLNKNVVKTEIEKLKEASEEFSDGYMIDLSGGGLKIRIKQKPNVGDSIFVNLPIGDQKLFLISTCVRAIREVNGEYLCGLEFDDDIDERIREHIINYTFNIMRKHMKKR”, which “soluble on expression in E. coli” value is on record?
A: Its value is “not soluble”.

Q: With “MGSDKIHHHHHHMGEKMLGIINATGSFPSLKKVTGHRSLAALPFGGRYRLIDFMLSNMVNSNIHSVAVFTSHKNRSLMDHVGSGKQWDLDRKRDGLFLFPPNCQCDQDEFGSFAHFRRHIDYFLRAREEYVVITNSHLVTALNFQAVLERHIHTAADITEVCHEGVSLQTYVLKKQLLLDLFDSYKDVEQYSLFDVVREKRGKSLHIATYEHTGYVAIIDSIESYYKHSLEILQPAIWKQLFKKEAPIFTKVKDEPPTRYVKGAVVKNTMIANGSIIEGEVENSVVSRSVKIGKGSIVRNSIIMQKSQIGDNCIIDGVIIDKDVKIGDGVVLKGNADEPYVVEKGSVQNSTINSYS” as the sequence, how does the “soluble on expression in E. coli” value read?
A: Its value is “not soluble”.

Q: For “MGSDKIHHHHHHMGERTEDYRYVKTQHKIYTALIALLKKRAFDDITVRDLCQAAQVSRSGFYLHFVDKYDLVDSYGRDLVKMGMRLFYANRGNGLETLYTELLTLINEQGDLITLLLSRKGSVEIQNQIKNQLRQNAADNILPYYGIKNQSPVAQRYLIAMTTGAVLSILQEWLDSGKQESPAELVAVMQEQVMPTLQRSQFRL”, which “soluble on expression in E. coli” value is on record?
A: Its value is “not soluble”.

Q: With “MGSDKIHHHHHHMGETVPEKAQGAIRHGGNLGKARLMFRQAPEPWIDLSTGINPHSYPHSPIPASAFARLPEPGAAEELKQLAAAHFGAPSAQHVTLSPGTQMLMPLLAQIAINRGAQSGAVLSPAYAEHARTARMAGLTVTEVENIGDLSAYGYAVVVNPNNPDGRITDREALLALAGTIGRKGGLLVVDEAFIETGGAESLAVATNGEALVVLRSFGKFYGMAGVRLGFAIAHPEIAAELEARLGPWAVSGPALHIATEALADREWQSSMRLRLAEEARRMNELLEKAGLKIAGGTSLFTLVRDERSRALFGHLGRRGILVRIFDERPDDMRFGLPGSEADWQRVEEALRSFDHSSKV” as the sequence, how does the “soluble on expression in E. coli” value read?
A: Its value is “not soluble”.
